Patent publication US8580932B2, “Method of thermostabilization of a protein and/or stabilization towards organic solvents” (Masarykova Univerzita, priority 2011, dated 2013)

What was measured:
[1] = Steady-state kinetics of haloalkane dehalogenases by isothermal titration calorimetry; type: biochemical; settings: pH 8.6, 25° C.; for ar (relative activity): percentage of specific activity in glycine buffer
Protocol: Substrate to product conversion by the action of enzymes was carried out using VP-ITC isothermal titration microcalorimeter (MicroCal), by single injection method. The substrate 1-iodohexane was dissolved in 100 mM glycine buffer (pH 8.6) containing appropriate volume of organic solvent and equilibrated at 25° C. in the sample cell (1.4 ml). The reaction was initiated by injecting of 10 μl of 1 mg/ml enzyme solution dialyzed overnight against the same solution as used for dissolving of the substrate. The heat flow (μcal s^−1) was recorded as a function of time. The reaction rate was calculated according to the equation:
[formula] where V is the volume of the sample cell, [S] is substrate concentration and ΔH is the enthalpy of the conversion of substrate to product and was determined experimentally by titration of the substrate into the sample cell containing the enzyme. The evaluated rate of substrate depletion (−d[S]/dt), and corresponding substrate concentration were fitted by nonlinear regression to kinetic models by using Origin 6.1 software (OriginLab, Massachusetts, USA). Results

[2] = Haloalkane dehalogenase activity assay in the presence of organic solvents; type: biochemical; settings: 100 mM glycine buffer (pH 8.6), 37° C., 1-iodohexane (FIG. 12)
Protocol: Haloalkane dehalogenase activity was assayed at 37° C. by a previously described method (Iwasaki, I., Utsumi, S., and Ozawa, T. 1952: New colorimetric determination of chloride using mercuric thiocyanate and ferric ion. Bulletin of the Chemical Society of Japan 25: 226-226). The released halide ions were analysed spectrophotometrically at 460 nm after a reaction with mercuric thiocyanate and ferric ammonium sulphate. The reaction mixture was composed of 100 mM glycine buffer (pH 8.6), 2 μl of substrate 1-iodohexane and appropriate amount of organic solvent. Solvent concentration was increased until the enzyme activity dropped below fifty per cent. The reaction was initiated by the addition of enzyme in a final concentration of 0.15 μM. The reaction was monitored by withdrawing samples at periodical intervals from the reaction mixture. The samples were immediately mixed with 35% nitric acid to terminate the reaction. Dehalogenation activity was quantified as a rate of product formation in time. Each activity was measured in 3-5 independent replicates and expressed as mean values of relative activity, represented percentage of activity in pure buffer.

[3] = Kinetic half-life assay of DhaA variants in 40% (v/v) DMSO; type: biochemical, Rhodococcus rhodochrous NCIMB 13064; settings: 60 mM glycine buffer (pH 8.6), 37° C.
[4] = 12 different substrates; cited from earlier work
[5] = type: physicochemical, Sphingobium japonicum UT26; settings: for ΔTm: compared to the wild type LinB; for Tm: ellipticity at 222 nm, 20 to 80° C., 1° C./min, 50 mM potassium phosphate buffer (pH 7.5)
Protocol: Circular dichroism spectra were recorded at 20° C. using a Jasco J-810 spectrometer (Jasco, Tokyo, Japan) coupled with Peltier temperature controller. Data were collected from 185 to 260 nm, at 100 nm/min, 1 s response time and 2 nm bandwidth using a 0.1 cm quartz cuvette containing the enzyme variant in 50 mM potassium phosphate buffer (pH 7.5). Each spectrum shown is the average of ten individual scans and was corrected for absorbance caused by the buffer. CD data were expressed in terms of the mean residue ellipticity (ΘMRE) using the equation: […]
Thermal unfolding of LinB enzyme variants was followed by monitoring the ellipticity at 222 nm over the temperature range of 20 to 80° C., with a resolution 0.1° C., at a heating rate 1° C./min. Recorded thermal denaturation curves were roughly normalized to represent signal changes between approximately 1 and 0 and fitted to sigmoidal curves using software Origin 6.1 (OriginLab, Massachusetts, USA). The melting temperatures (Tm) were evaluated as a midpoint of the normalized thermal transition.

[6] = formamide 5% (v/v), 1-iodohexane

B1: DhaA: haloalkane dehalogenase DhaA from Rhodococcus rhodochrous NCIMB13064 (protein, UniProt P0A3G2 1-293, looked up)
Haloalkane dehalogenase: MSEIGTGFPFDPHYVEVLGERMHYVDVGPRDGTPVLFLHGNPTSSYLWRNIIPHVAPSHRCIAPDLIGMGKSDKPDLDYFFDDHVRYLDAFIEALGLEEVVLVIHDWGSALGFHWAKRNPERVKGIACMEFIRPIPTWDEWPEFARETFQAFRTADVGRELIIDQNAFIEGALPKCVVRPLTEVEMDHYREPFLKPVDREPLWRFPNELPIAGEPANIVALVEAYMNWLHQSPVPKLLFWGTPGVLIPPAEAARLAESLPNCKTVDIGPGLHYLQEDNPDLIGSEIARWLPAL
K0.5 (concentration of substrate at half maximal velocity) [1, 6]: 4.2 µM
Ksi (substrate inhibition constant) [1, 6]: 0.6 mM
nH (Hill coefficient) [1, 6]: 2.0
ar (relative activity) ([1]; formamide 5% (v/v)): 130%
ar (relative activity) ([1]; glycine buffer (reference)): 100%
K0.5 (concentration of substrate at half maximal velocity) ([1]; glycine buffer, 1-iodohexane): 8.5 µM
Ksi (substrate inhibition constant) ([1]; glycine buffer, 1-iodohexane): 1.1 mM
kcat ([1]; glycine buffer, 1-iodohexane): 0.9 s⁻¹
nH (Hill coefficient) ([1]; glycine buffer, 1-iodohexane): 2.0
Specific activity in glycine buffer [2]: 0.0355 μmol s^−1 mg^−1 of enzyme
deactivation in the presence of DMSO [3]: proceeded rapidly

B2: L177P: LinB variant in the position 177 (protein, UniProt D4Z2G1 2-296, looked up, variant L177P)
Haloalkane dehalogenase: SLGAKPFGEKKFIEIKGRRMAYIDEGTGDPILFQHGNPTSSYLWRNIMPHCAGLGRLIACDLIGMGDSDKLDPSGPERYAYAEHRDYLDALWEALDLGDRVVLVVHDWGSALGFDWARRHRERVQGIAYMEAIAMPIEWADFPEQDRDLFQAFRSQAGEELVLQDNVFVEQVLPGPILRPLSEAEMAAYREPFLAAGEARRPTLSWPRQIPIAGTPADVVAIARDYAGWLSESPIPKLFINAEPGALTTGRMRDFCRTWPNQTEITVAGAHFIQEDSPDEIGAAIAAFVRRLRPA
activity with tested substrates [4]: did not show activity with any of tested substrates

B3: L177H: LinB variant in the position 177 (protein, UniProt D4Z2G1 2-296, looked up, variant L177H)
Haloalkane dehalogenase: SLGAKPFGEKKFIEIKGRRMAYIDEGTGDPILFQHGNPTSSYLWRNIMPHCAGLGRLIACDLIGMGDSDKLDPSGPERYAYAEHRDYLDALWEALDLGDRVVLVVHDWGSALGFDWARRHRERVQGIAYMEAIAMPIEWADFPEQDRDLFQAFRSQAGEELVLQDNVFVEQVLPGHILRPLSEAEMAAYREPFLAAGEARRPTLSWPRQIPIAGTPADVVAIARDYAGWLSESPIPKLFINAEPGALTTGRMRDFCRTWPNQTEITVAGAHFIQEDSPDEIGAAIAAFVRRLRPA
ΔTm [5]: 0.8 °C
Tm [5]: 48.85 ± 0.28 °C

B4: L177K: LinB variant in the position 177 (protein, UniProt D4Z2G1 2-296, looked up, variant L177K)
Haloalkane dehalogenase: SLGAKPFGEKKFIEIKGRRMAYIDEGTGDPILFQHGNPTSSYLWRNIMPHCAGLGRLIACDLIGMGDSDKLDPSGPERYAYAEHRDYLDALWEALDLGDRVVLVVHDWGSALGFDWARRHRERVQGIAYMEAIAMPIEWADFPEQDRDLFQAFRSQAGEELVLQDNVFVEQVLPGKILRPLSEAEMAAYREPFLAAGEARRPTLSWPRQIPIAGTPADVVAIARDYAGWLSESPIPKLFINAEPGALTTGRMRDFCRTWPNQTEITVAGAHFIQEDSPDEIGAAIAAFVRRLRPA
thermal stability compared to the wild type enzyme [5]: improvement in thermal stability
ΔTm [5]: 3.0 °C
Tm [5]: 51.01 ± 0.54 °C

B5: L177M: LinB variant in the position 177 (protein, UniProt D4Z2G1 2-296, looked up, variant L177M)
Haloalkane dehalogenase: SLGAKPFGEKKFIEIKGRRMAYIDEGTGDPILFQHGNPTSSYLWRNIMPHCAGLGRLIACDLIGMGDSDKLDPSGPERYAYAEHRDYLDALWEALDLGDRVVLVVHDWGSALGFDWARRHRERVQGIAYMEAIAMPIEWADFPEQDRDLFQAFRSQAGEELVLQDNVFVEQVLPGMILRPLSEAEMAAYREPFLAAGEARRPTLSWPRQIPIAGTPADVVAIARDYAGWLSESPIPKLFINAEPGALTTGRMRDFCRTWPNQTEITVAGAHFIQEDSPDEIGAAIAAFVRRLRPA
ΔTm [5]: −0.3 °C
Tm [5]: 47.78 ± 0.17 °C

B6: L177Q: LinB variant in the position 177 (protein, UniProt D4Z2G1 2-296, looked up, variant L177Q)
Haloalkane dehalogenase: SLGAKPFGEKKFIEIKGRRMAYIDEGTGDPILFQHGNPTSSYLWRNIMPHCAGLGRLIACDLIGMGDSDKLDPSGPERYAYAEHRDYLDALWEALDLGDRVVLVVHDWGSALGFDWARRHRERVQGIAYMEAIAMPIEWADFPEQDRDLFQAFRSQAGEELVLQDNVFVEQVLPGQILRPLSEAEMAAYREPFLAAGEARRPTLSWPRQIPIAGTPADVVAIARDYAGWLSESPIPKLFINAEPGALTTGRMRDFCRTWPNQTEITVAGAHFIQEDSPDEIGAAIAAFVRRLRPA
ΔTm [5]: 0.0 °C
Tm [5]: 48.08 ± 0.17 °C
